US20260265360A1, “USE OF ANTI-FAM19A5 ANTAGONISTS FOR TREATING HEARING DISORDERS” (NEURACLE SCIENCE CO., LTD., priority 2023, published 2026)

Assays:
[1] = system: noise-induced hearing loss mouse model; assay: Noise-induced hearing loss mouse model, first antibody dose one day prior to noise exposure; assay type: in vivo
Procedure: FIGS. 6A, 6B, 6C, 6D, and 6E show the therapeutic effect of FAM19A5 antagonists on auditory brainstem response (ABR) threshold in a noise-induced hearing loss mouse model. FIG. 6A provides a schematic of the experimental design. As shown, anti-FAM19A5 antibody (1-30) or control human IgG antibody was administered to the mice intravenously once a week (30 mg/kg per dose) for a total of five administrations. The first dose of the antibodies was administered one day before noise exposure. For noise-induced hearing loss induction, the animals were subjected to temporary threshold shift (TTS) of 105 decibels for 30 minutes. ABR (i.e., hearing test) was measured both prior to the initial administration of the antibodies and then at various times after administration. FIGS. 6B, 6C, 6D, and 6E provide comparison of ABR threshold between mice administered with the control human IgG (circle), anti-FAM19A5 antibody (square), or before noise (triangle) at the following time points: (i) before TTS exposure, (ii) 1 day after TTS exposure, (iii) 2 weeks after TTS exposure, (iv) 4 weeks after TTS exposure, and […], respectively. ABR threshold was measured at a frequency ranging from 4 kHz to 64 kHz.
FIGS. 7A, 7B, 7C, and 7D show the therapeutic effect of FAM19A5 antagonists on distortion product […] emission (DPOAE) threshold in a noise-induced hearing loss mouse model. The overall experimental design is the same as that described in FIG. 6A. DPOAE threshold data was measured after antibody administration and: (i) before TTS exposure (FIG. 7A), (ii) 1 day after TTS exposure (FIG. 7B), (iii) 2 weeks after TTS exposure (FIG. 7C), and (iv) 4 weeks after TTS exposure (FIG. 7D). DPOAE threshold was measured at a frequency ranging between about 4 kHz to about 32 kHz.
FIGS. 8A and 8B show the effect of FAM19A5 antagonists on distortion product […] emission (DPOAE) amplitude in a noise-induced hearing loss mouse model. The overall experimental design is the same as that described in FIG. 6A. DPOAE amplitude data was measured after antibody administration at 2 weeks after TTS exposure. FIG. 8A provides a comparison of the average DPOAE amplitude value as a function of different noise level for the following groups: (i) before noise (triangle), (ii) control antibody treated (circle), and (iii) anti-FAM19A5 treated (square). FIG. 8B provides a spectral level profile for each of the groups.
FIGS. 11A and 11B show the effect of FAM19A5 antagonists on ABR I/O function in a noise-induced hearing loss mouse model. The overall experimental design is the same as that described in FIG. 6A. FIG. 11A provides wave I amplitude before noise (left graph) and at 2 weeks after noise (right graph).
FIG. 11B provides wave I amplitude at 4 weeks after noise. For each of FIGS. 11A and 11B, the following groups of animals are shown: (i) control antibody treated (circle) and (ii) anti-FAM19A5 antibody treated (square). For comparison purposes, wave I amplitude before noise exposure is also provided at the 2 weeks and 4 weeks timepoints (“BN”).
FIGS. 12A and 12B provide immunohistochemistry (IHC) analysis of the therapeutic effects of anti-FAM19A5 antibody (1-30) and control human IgG antibody administration in the middle cochlear region 8 weeks after temporary threshold shift (TTS) (i.e., noise induction).
To assess whether the FAM19A5 antagonists described herein can treat hearing loss, a noise-induced hearing loss mouse model was used. Briefly, for hearing loss induction, the animals were exposed to a temporary threshold shift (TTS) of 105 decibels for 30 minutes. An anti-FAM19A5 antibody (1-30 antibody) or a control human IgG antibody was intravenously administered to C57BL/6 mice (8 weeks old) once weekly for 5 total administrations (30 mg/kg per dose). […] To assess the effect on hearing loss, ABR threshold, DPOAE threshold, and/or DPOAE amplitude were measured at various time points (see “hearing test” in FIG. 6A). […]

C57BL/6 mice = assay: Effect of anti-FAM19A5 antibody administration itself on hearing ability (ABR threshold); assay type: in vivo, mouse; conditions: 30 mg/kg i.v. once weekly; 2 weeks post antibody administration; no noise exposure
Procedure: FIGS. 5A, 5B, and 5C show the effect of FAM19A5 antagonist administration on hearing ability in mice. The effect on hearing was assessed by measuring auditory brainstem response (ABR) generated after FAM19A5 antagonist administration. FIG. 5A provides a schematic of the experimental design. As shown, anti-FAM19A5 antibody (1-30) or control human IgG antibody was administered to the mice intravenously once a week (30 mg/kg per dose). ABR (i.e., hearing test) was measured prior to the initial administration of the antibodies and then at day 1, week 2, and 8 week post antibody administration. FIG. 5B provides comparison of ABR threshold in the mice prior to the initial administration of the anti-FAM19A5 antibody (box) or the control IgG antibody (circle). […] In both FIGS. 5B and 5C, the ABR threshold was measured at a frequency ranging from 0 to 64 kHz.
To assess whether the administration of a FAM19A5 antagonist itself has any effect on hearing, C57BL/6 mice (8 weeks old) were intravenously administered with either an anti-FAM19A5 antibody (1-30 antibody) or a control human IgG antibody. […] To assess hearing, auditory brainstem response (ABR) threshold was measured prior to the initial antibody administration and then at day 1, 2 weeks, and 8 weeks post antibody administration.

B1: 1-30: anti-FAM19A5 antibody, de-immunized variant of 3-2; VH SEQ ID NO: 235, VL SEQ ID NO: 240 (antibody, V domains shown)
VH: AVTLDESGGGLQTPGGALRLSCKASGFDFESFNMFWVRQAPGKGLEYVSQISSSEEDENYAPAVKGRATISRDNGQSTLYLQMNSLRAEDTGTYYCAKSSYDCPYGHCSSGVDSAGEIDAWGHGTEVIVSS
VL: ALTQPSSVSANPGETVKITCSGGGSEEEQYYYGWYQQKPGSAPVTLIYQDEERPSDIPSRFSGSTSGSTATLTITGVQAGDEADYYCGSWDSEDEDHFGAGTTLTVL
modifications: Low-PI VH, 1-30 VH, 1-17 VH, 1-32 VH, 4-11 VH, 6-10 VH; 1-30 VL
B1 was tested, and the “DPOAE amplitude vs control antibody” value ([1]; 2 weeks after TTS exposure, about 18 kHz frequency) was “higher DPOAE amplitude”, the “number of ribbon bodies per cell in IHC and OHC vs hIgG” value ([1]; 8 weeks after TTS) was “increased number of ribbon bodies per cell” and the “ABR threshold values vs values prior to TTS exposure” value ([1]; all time points assessed after TTS, 30 mg/kg i.v. weekly x5, first dose one day before noise) was “comparable to corresponding values prior to the TTS exposure”. The “DPOAE threshold values vs control IgG antibody” value ([1]; before and 1 day, 2 weeks, 4 weeks after TTS, 30 mg/kg i.v. weekly) was “no noticeable differences”, the “increase in ABR threshold after TTS exposure, vs control antibody” value ([1]; day 1 post TTS (105 dB, 30 min), 30 mg/kg i.v. weekly x5, first dose one day before noise) was “much more dramatic in animals treated with the control antibody” and the “ABR wave I amplitude vs control antibody” value ([1]; four weeks post noise exposure) was “noticeable differences were observed”. The “expression of CtBP2 (cochlear ribbon synapse marker) in the IHC vs control antibody” value ([1]; middle cochlear region, 8 weeks after TTS) was “noticeable increase”, the “ABR wave I amplitude vs control antibody” value ([1]; two weeks post noise exposure) was “noticeable differences were observed” and the “ABR threshold values vs control IgG antibody” value (C57BL/6 mice) was “remained comparable”.
